Data set [1] has as its system hemizygous Mtw1 deletion strain. The data set is described as follows: Tetrad analysis, Mtw1 alleles. Type of data set: cell-based, budding yeast. Particulars: Mtw1 rescue construct only source of Mtw1. As to the method:
Figure 3 Analysis of Mtw1 interface mutants in vivo • Structure of the Mtw1c head I bound to Mif2 and list of key residues constituting interface I (Mif2 binding) and interface II (putative Ame1 binding) from Dimitrova et al. • Analysis of these Mtw1 mutants in vivo using the anchor‐away technique. Mtw1‐FRB strains containing RPL13‐FKBP12 for cytoplasmic anchoring and additionally harboring the indicated rescue alleles were plated in serial dilution on YEPD or YEPD + rapamycin plates incubated at 30°C. • Tetrad analysis of Mtw1‐wt or mutants. Surviving spores in which the Mtw1‐wt or mutant rescue construct was the only source of Mtw1 are indicated in pink circles. • Western blotting confirming the expression of Mtw1‐6x‐Flag wt or mutant proteins in the Mtw1‐FRB strain background. • Analytical SEC runs and accompanying SDS–PAGE of Mtw1c‐wt or Mtw1c‐5A mutant (blue), AO (gray), or a stoichiometric combination of both complexes (green) at 10 μM each. Boxes indicate corresponding fractions in left and right panels.
The inability of these alleles to support growth was not due to lack of protein expression, although the steady‐state level was reduced compared to the wild‐type as shown by Western blotting (Fig 3D). We additionally confirmed that Mtw1 interface I mutants indeed confer a lethal phenotype by introducing the respective mutations into a hemizygous Mtw1 deletion strain and performing tetrad dissection. […] The more severe phenotype of Mtw1‐3A in the FRB system compared to tetrad dissection might be due to the additional mutations in the complex genetic background of the anchor‐away strain, which might make it more sensitive to the Mtw1‐3A mutation.
Serial fourfold dilutions of overnight cultures were prepared on 96‐well plates in minimal medium starting from OD600 of 0.6. The dilutions were spotted on YPD medium with and without rapamycin or on YP‐glucose and YP‐galactose and grown at 30°C for 3 days. […]

Data set [2] concerns Ame1‐Okp1 (AO) complex. The data set is described as follows: Analytical SEC of Mtw1c wild-type and mutants with Ame1-Okp1 (AO). The data set is classed as binding, budding yeast. Particulars: 10 μM each. As to the method: Figure 3 Analysis of Mtw1 interface mutants in vivo • Structure of the Mtw1c head I bound to Mif2 and list of key residues constituting interface I (Mif2 binding) and interface II (putative Ame1 binding) from Dimitrova et al. • Analysis of these Mtw1 mutants in vivo using the anchor‐away technique. Mtw1‐FRB strains containing RPL13‐FKBP12 for cytoplasmic anchoring and additionally harboring the indicated rescue alleles were plated in serial dilution on YEPD or YEPD + rapamycin plates incubated at 30°C. • Tetrad analysis of Mtw1‐wt or mutants. […]
The GST pulldown experiment was performed using BSA‐preblocked GSH Sepharose beads. […] Beads were washed twice in pulldown buffer, before Laemmli sample buffer was added to the beads (GST pulldown) or proteins were eluted in pulldown buffer supplemented with 1 mg/ml Flag peptide before addition of Laemmli sample buffer (Flag pulldown) and samples were analyzed on a Coomassie Brilliant Blue‐stained SDS–PAGE gel or Western blotting. […] Elution of proteins was monitored at 280 nm. 100 μl fractions were collected and analyzed by SDS–PAGE and Coomassie Brilliant Blue staining or Western blotting. […] After several washes with lysis buffer, proteins were eluted with 0.2 mg/ml 3xFlag peptide in lysis buffer, and fractions were analyzed by Western blotting. […]

Data set [3] addresses T1, Mtw1-Nnf1 heterodimer (MN) (S. cerevisiae, UniProt P39731 1-289; P47149 1-201).
T1 construct: Mtw1, S. cerevisiae; Nnf1, S. cerevisiae; also called Mtw1/Nnf1 dimer; MN complex; source: E. coli BL21 (DE3), purified (HisTrap, Q flow-through, SEC); not shown: His6, N-terminal, kept
T1 sequence (looked up) 1: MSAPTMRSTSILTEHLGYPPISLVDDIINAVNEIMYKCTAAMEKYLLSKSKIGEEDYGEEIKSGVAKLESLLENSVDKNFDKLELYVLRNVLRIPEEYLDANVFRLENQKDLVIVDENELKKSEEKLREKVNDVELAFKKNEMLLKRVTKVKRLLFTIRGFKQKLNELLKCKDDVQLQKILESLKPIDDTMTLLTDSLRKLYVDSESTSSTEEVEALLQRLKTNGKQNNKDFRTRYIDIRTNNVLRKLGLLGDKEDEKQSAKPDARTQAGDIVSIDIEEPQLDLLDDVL
T1 sequence (looked up) 2: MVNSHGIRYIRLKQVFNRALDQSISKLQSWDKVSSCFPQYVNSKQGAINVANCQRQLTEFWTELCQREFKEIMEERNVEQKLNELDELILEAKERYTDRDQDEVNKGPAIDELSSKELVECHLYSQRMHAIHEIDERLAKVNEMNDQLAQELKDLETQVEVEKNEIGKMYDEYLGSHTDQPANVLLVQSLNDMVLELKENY
The experiment in a line: ITC; peptide (Mif2 1-41 250 μM or Ame1 1-20 800 μM) titrated into 25 μM MN; 30 mM Hepes pH 7.5, 150 mM NaCl, 1 mM TCEP, 25°C; one set of binding sites; average of 3 or 4 experiments. Particulars: both partners purified.

In data set [4] the target is T1, Mtw1-Nnf1 heterodimer (MN). The experiment in a line: fluorescence polarisation; 0.1 μM FITC-Mif2 1-41, MN added from 0 to 4 μM; 30 mM Hepes pH 7.5, 150 mM NaCl, 1 mM TCEP, 23°C; one set of binding sites; triplicates. The settings on record: both partners purified. In general terms: In fluorescence polarisation assays a small probe gives low polarisation when free and higher when bound to something large.

Numbering of substitutions follows the chain as printed. Numbers in names are those of the source. Where no end group is shown, it is not given here.

B1: Mtw1‐5A: Mtw1 D25A D81A K82A E84A Y86A, interface I (protein, UniProt P39731 1-289, looked up, variant D25A D81A K82A E84A Y86A)
Kinetochore-associated …: T1 sequence (looked up) 1 with D25A, D81A, K82A, E84A, Y86A
As for B1, the “viability of haploid spores” value in data set [1] is recorded as “inviable”. Moreover, the “interaction of Mtw1c with AO, SEC” value in data set [2] is reported as “no longer able to interact efficiently with AO”.

B2: Mtw1‐3A: Mtw1 E73A N32A Y36A, interface II (protein, UniProt P39731 1-289, looked up, variant E73A N32A Y36A)
Kinetochore-associated …: T1 sequence (looked up) 1 with N32A, Y36A, E73A
With B2, in data set [1], the “viability of haploid spores” value was “viable, albeit slow‐growing”. Also, the “interaction of Mtw1c with AO, SEC” value in data set [2] is given as “abolish AOc binding”.

B3: Mtw1-8A: Mtw1 D25A N32A Y36A E73A D81A K82A E84A Y86A, interface I+II (protein, UniProt P39731 1-289, looked up, variant D25A N32A Y36A E73A D81A K82A E84A Y86A)
Kinetochore-associated …: T1 sequence (looked up) 1 with D25A, N32A, Y36A, E73A, D81A, K82A, E84A, Y86A
Regarding B3, the “viability of haploid spores” value in data set [1] is “inviable”.

B4: Ame1-N peptide (aa 1-20) (peptide, UniProt P38313 1-20, looked up)
peptide: MDRDTKLAFRLRGSHSRRTD
notes: Ame1 (CENP-U homolog), S. cerevisiae, residues 1-20; also called Ame1^1-20; Ame1_1-20
For B4, in data set [3], the Kd (commonly the equilibrium constant for the complex coming apart) came out at 12.5 µM.

B5: Mif2^1-41 peptide (peptide, UniProt P35201 1-41, looked up)
peptide: MDYMKLGLKSRKTGIDVKQDIPKDEYSMENIDDFFKDDETS
notes: Mif2, S. cerevisiae, residues 1-41, unlabeled, used in ITC; also called Mif2-N
Molecule B5 yielded a Kd in data set [3] of 1.17 µM.

B6: FITC-Mif2^1-41 (peptide, UniProt P35201 1-41, looked up)
peptide: B5 peptide
modifications: also: FITC label (position not given here)
notes: Mif2, S. cerevisiae, residues 1-41; also called Mif2-N (FITC-labeled N-terminal Mif2 peptide)
B6 gave a Kd in data set [4] of 0.38 µM.

These data come from article PMC7360964, “Auto‐inhibition of Mif2/CENP‐C ensures centromere‐dependent kinetochore assembly in budding yeast” (The EMBO Journal, 2020).
